Experimental data: the DeepSol protein solubility set

Assay: soluble on expression in E. coli; label from the status in PepcDB or PDB records

Row | Sequence | soluble on expression in E. coli
1 | MKWKEQAIILGTRQYGETSVILEVMTRQHGRYMGVVKGGRSRRMAVLLQPGNFVEAEWWARLDEHLGLFRLEALDLHAARLILFPEALYALQLIVFHLHLLPERDPHPILYDILHLFMQSFDEPFINAELLVRFEMRFLEELGFGLDLSRCAATGRLEKLCYVSPKSGRAVCEEAGHPWREKLLNLPQFLVQRTVRPVDFSDIKNGFILTGFFLMRHVWEPRNIKQPSVRISLIQLFEQRFRMQASFVDLKTINRM | not soluble
2 | MGSDKIHHHHHHMTDDIYFAPLLPWQHGLWSQLTMRVLAQKQSLPHALLAAGMQGMGKRAFVWRLVAWLLCRARDEHPLGACGHCESCQWLRSGTHPSLQALPLISLPISADNAHTQEVASGTAKDKKTTKAASNGSLKIKVDEIRALQPFIYQGGQGMRICVLDHAEQMTIAAANALLKTLEEPQAQVHLFLISDAPAQLLPTIKSRVQQLSLQTIDPAIAVDYVTKVLGSTVHREALGTDVIEQLIQLANGAPLAAVALAQAPWYSKRALWLTTWQALRSGKRSSVAASDYWQIHLGIAEFIRLSELMVIDIRRVGLGFEAQQKDINFSTTLNGYQPIDNELEAFAHSLQQTKIALQQNVQEKFAYDKLMQELACL | not soluble
3 | AEQLRGEPWFHGKLSRREAEALLQLNGDFLVRESTTTPGQYVLTGSQSGQPKHLLLVDPEGVVRTKDHRFESVSHLISYHMDNHLPIISAGSELCLQQPVERKLLEH | soluble
4 | MTTLNSTPRADGFHMPAEWAPQTQVWMVWPERPDNWRLGGKPAQAAHVAIAKAIARFEPVTVAVSAAQYDNARARLDMPNIRVVEMSSNDAWVRDSGPTFVINDRGELRGVNWEFNAWGGFDGGLYAPWNLDSQVGSKVLEIERCPRYATQGFVLEGGSIHVDGEGTLITTEECLLNRNRNPHLTREQIEAVLSDYLAVDKIIWLPDGLFNDETDGHVDNFCCYIRPGEVLLAWTDDPEDPNYPRCHAALSILENTRDAQGRAFIVHKMPIPGPLFATEEECAGVDQVHGSQERNPSVRLAGSYVNFLIVNGGIIAPSFDDPMDEKAREILQKLFPEHEVVMAPGRELLLGGGNIHCLTQQQPAPFKALEHHHHHH | soluble
5 | MDSVELCLPESFSLHYEEELLCRMSNKDRHIDSSCSSFIKTEPSSPASLTDSVNHHSPGGSSDASGSYSSTMNGHQNGLDSPPLYPSAPILGGSGPVRKLYDDCSSTIVEDPQTKCEYMLNSMPKRLCLVCGDIASGYHYGVASCEACKAFFKRTIQGNIEYSCPATNECEITKRRRKSCQACRFMKCLKVGMLKEGVRLDRVRGGRQKYKRRIDAENSPYLNPQLVQPAKKPYNKIVSHLLVAEPEKIYAMPDPTVPDSDIKALTTLCDLADRELVVIIGWAKHIPGFSTLSLADQMSLLQSAWMEILILGVVYRSLSFEDELVYADDYIMDEDQSKLAGLLDLNNAILQLVKKYKSMKLEKEEFVTLKAIALANSDSMHIEDVEAVQKLQDVLHEALQDYEAGQHMEDPRRAGKMLMTLPLLRQTSTKAVQHFYNIKLEGKVPMHKLFLEMLEAKV | soluble
6 | NAQARFSQNLLDQGSHPTSEKLLSVLRPASGHVADALGITEGENVIHLRTLRRVNGVALCLIDHYFADLTLWPTLQRFDSGSLHDFLREQTGIALRRSQTRISARRAQAKECQRLEIPNMSPLLCVRTLNHRDGESSPAEYSVSLTRADMIEFTMEH | soluble
7 | SNAIMAKTAKVAVSQIVEHPALDATRQGLLDGLKAKGYEEGKNLEFDYKTAQGNPAIAVQIARQFVGENPDVLVGIATPTAQALVSATKTIPIVFTAVTDPVGAKLVKQLEQPGKNVTGLSDLSPVEQHVELIKEILPNVKSIGVVYNPGEANAVSLMELLKLSAAKHGIKLVEATALKSADVQSATQAIAEKSDVIYALIDNTVASAIEGMIVAANQAKTPVFGAATSYVERGAIASLGFDYYQIGVQTADYVAAILEGKEPGSLDVQVAKGSDLVINKTAAEQLGITIPEAVLARATSTK | soluble
8 | MTIHIYNTLTRQKEEFTPLEENKVKMYVCGPTVYNYIHIGNARPPMVFDTVRRYLEYKGYDVQYVSNFTDVDDKLIKAANELGEDVPTIADRFVEAYFEDVTALGCKHATVHPRVTENMDIIIEFIQELVNKGYAYESEGDVYFRTKEFEGYGKLSHQPIADLRHGARIEVGEKKQDPLDFALWKAAKEGEIFWESPWGQGRPGWHIECSAMARKYLGDTIDIHAGGQDLAFPHHENEIAQSEALTGKTFARYWMHNGYININNEKMSKSLGNFILVHDIIKQYDPQLIRFFMLSVHYRHPINFSEELLQSTNNGLERIKTAYGNLKHRMESSTDLTDHNEKWLADLEKFQTAFEEAMNDDFNTANAITELYNVANHANQYLLEEHTSTVVIEAYVKQLETLFDILGLELAQEELLDEEIEALIQKRIEARKNRDFALSDQIRDDLKDRNIILEDTAQGTRWKRG | soluble
9 | MEKNTIILGIETSCDETAVAVVKNGTEIIANVVASQIESHKRFGGVVPEIASRHHVEEITVVLEEALKEANITFDDIDAIAVTEGPGLVGALLIGVNAAKAVAFAHDIPLVGVHHIAGHIYANRLVKEVQFPLLSLVVSGGHTELVYMKEHGSFEVIGETRDDAAGEAYDKVARTLSMPYPGGPHIDRLAHEGKPTIDLPRAWLEPDSYDFSFSGLKSAVINTVHNAKQRGIEIAPEDLAASFQESVIDVLVTKASRAADAYNVKQVLLAGGVAANKGLRARLETEFAQKENVELIIPPLSLCTDNAAMIAAAGTIAYEQGKRATLALNANPGLDIEA | not soluble
10 | MHHHHHHSSGVDLGTENLYFQSMPRIDADLKLDFKDVLLRPKRSSLKSRAEVDLERTFTFRNSKQTYSGIPIIVANMDTVGTFEMAAVMSQHSMFTAIHKHYSLDDWKLFATNHPECLQNVAVSSGSGQNDLEKMTSILEAVPQVKFICLDVANGYSEHFVEFVKLVRAKFPEHTIMAGNVVTGEMVEELILSGADIIKVGVGPGSVCTTRTKTGVGYPQLSAVIECADSAHGLKGHIISDGGCTCPGDVAKAFGAGADFVMLGGMFSGHTECAGEVIERNGRKLKLFYGMSSDTAMNKHAGGVAEYRASEGKTVEVPYKGDVENTILDILGGLRSTCTYVGAAKLKELSRRATFIRVTQQHNTVFS | soluble
11 | MNKFNEEYRKMEEDAQRRHQELNRQSLENAAEMKDSRRKILNKEFEGAILIKQVEHETKQVEKKRENLEKGHKKEMRNMSADFRKKKNEIEMEQLKLAIGNRVENHNQRKVEEQLRNEQERFLKKLLKYHTTTGANRDLFGEFQKVLKPFNEMIGELQDIKLRCITDGDADNGYIEYEVDYVGQLRRSVYTEIDEFREYIADEKNISKEIGIACAIYVKKLERIADCKELNLLCDQLQAAIEGKNGEIIKTCEIFIDKFTQKFESISNGSTSDFHRLRLKAPERDIPSSSTLTIEN | not soluble
12 | MHHHHHHLVPRGSMLDFEKPLFEIRNKIESLKESQDKNDVDLQEEIDMLEASLERETKKIYTNLKPWDRVQIARLQERPTTLDYIPYIFDSFMELHGDRNFRDDPAMIGGIGFLNGRAVTVIGQQRGKDTKDNIYRNFGMAHPEGYRKALRLMKQAEKFNRPIFTFIDTKGAYPGKAAEERGQSESIATNLIEMASLKVPVIAIVIGEGGSGGALGIGIANKVLMLENSTYSVISPEGAAALLWKDSNLAKIAAETMKITAHDIKQLGIIDDVISEPLGGAHKDIEQQALAIKSAFVAQLDSLESLSRDEIANDRFEKFRNIGSYIE | soluble
13 | MSPNCETPTSSLSTSLRFVPSLACIAEEEPKVIGIRKITVPGSSKPFQVQIPLYDLNIYAPEPPKQPLPDSYQRLLAEMDQYIGGHQNSEMYKEMAKNLRHKVAVEQAENNRLSKSNFTNRDWYWYAEQTRAFVDEPVINSTSKTQESNISECLEETSSSAKSTVMKDEDLFDLSADF | not soluble
14 | MAHHHHHHMTALITKQRYNWMGYDGVESAVCDTALLRSDGGPANNYNYMHRQQVIMEVKERLYRIKRDLGLIPEEELRAEERAIQRRRMEKKRREEEERIRKEAEEAARAEEMERRHLELEEAEERASAEEVATQASAEHKHYMNDSDEDSDEENGIDDEQSASLVAMLRTQEEIDSAIAGFTKGTRMLLASSGNGYVSYLDGSVHFTIAKVESHNASNREKVMQALAGTNVAMPTAEEYSLEEVRQAMHDRDTARKKLDALRALQDPTYTARIRSAEKDTYGTPVQQLMEEDGDMSALVANCEDAKRFAESVRKAYNSRAAASAHALACALCTPPFTAEQESTSEAQAPAGKMANAEDGVSQPTGANSPSSSTSAQ | not soluble
15 | MGSDKIHHHHHHMRAAQYLRMSTEHQTYSIDNQRDAIRDYAEIMGYEIVATYEDAGRSGLNLGGRPGLQRLLADVESGRADFETVVVYDVSRWGRFQNIDESAAYEYRCQMAGVRIEFCAEQFANDGSIESDVLKAIKRSMAAEQSRMLSQKVFIGQARLIRMGFRQGSKVGFGLRRLLVDQHGRPKGILSPSEYKSLQTDRIILVLGPPDEIATVRWIFGHFVKTRKTELEMARLLNKRGVLSDLGRPWTRVSVHSVLTNENYIGNSIWNKHSARLRSHQVRNPPELWVRVENILEPIVDRKLFNRAQIVLKTIYRHLTNDEMLAALKALLARRGALSSFIIDAAPDCPPSTRYMSRFGTIVKAYELIGYEPPKNSRYIFVNRRLETMRLQIIEDLLAAVEKRGGIATHVMETDLLRINQEITVAIATGRCRVSSFGYPRWFAKADREPPPDIFVLIRMNPDDLSIRDYLIAPAHEIAGKSELHAINGARLDTYIFPTLNPLIRLAERASVGSAAWN | not soluble
16 | MGSDKIHHHHHHMKEVFDLRGRVALVTGGSRGLGFGIAQGLAEAGCSVVVASRNLEEASEAAQKLTEKYGVETMAFRCDVSNYEEVKKLLEAVKEKFGKLDTVVNAAGINRRHPAEEFPLDEFRQVIEVNLFGTYYVCREAFSLLRESDNPSIINIGSLTVEEVTMPNISAYAASKGGVASLTKALAKEWGRYGIRVNVIAPGWYRTKMTEAVFSDPEKLDYMLKRIPLGRTGVPEDLKGVAVFLASEEAKYVTGQIIFVDGGWTAN | soluble
17 | LSPLPRAYQWADGSAYLNHVELVRKARGAEVPASFYTDPLMYQGGSDAFLAPTADIPLRDEAWGLDFEGEVAVVTGDVPLGAPADAKYIRLLMLVNDVTLRGLIPPELAKGFGFFQSKPATAFSPVAVTPDELGDAWDGGKVHLPLLVDYNGAFYGKPDCGVEMQFSFPQLVAHVSKTRELVAGSIVGSGTISNKDRSVGSCCLAEQRMIETIEQGAPKTPFMKVGDTVRIEMRNAAGDSIFGAIEQTVVKHD | not soluble
18 | MEQTLKITSVLSDPTRFHIYEYIAKVHREVSVQEIAEKFHIHPNVARLHLTKLEDVRMVVSDTQKTGKGGRPSRLYRLSDEVIGLYFPFRDYQLLARIAIQTMAKLGPIGSEALRETGKRFGRELIASRLPHNGAASALTMADKIAIMEEAAEAAGFLPQLHYDEEKGVLYLDIFNCPFKEIAAQAPDTVCGMHHSFLEGMVETLFAGAEVTETENMMEGSHRCAYRIVIRP | not soluble
19 | MKNFVRTTLLAATLAGVSFGAFATAVPNPPLPAQDPIVQHLKLTNDQITRIKKLHQQLETDVSQISMKGIKDGALIEVIKSGKWDDAAVKQQLAAFSNIEQQARYYRVKYYFDLSKVLTPEQRQQVQQDLAQALELEHHHHHH | soluble
20 | MAHHHHHHMAYRVQKTTPAVVDNGTSSDGDEAQRASHKTAKTSSPSPIPKPARRKAPIADSDSDDESATRPAAKTTSPKFALKKAAVDSDSSDEDEPVPKNSSAGKRPAPRAEEAPAQRAARTESEGAARRTPHHLNEDGTFRRFQRIDPAKVTFDADALRDNRPGREHLVLRQNQEMMRTKGKGFNKLKQKNKGKFYGAGVDLSVRAYQFPDSDDE | soluble
21 | MQNEKTLRKIKKLLALSKSSNPHEAAKALEMAQKLMQENRINQVEIEFSQYHGKQKTAKKSARYVHQLVGVITRAFGVDAYMSNFYPDKDEAEEKMHVVFYGAEGRPEIASYCFDVLYRQLQTARKEFLATQSKRLKRSTLISRGDEFCQGWVFGVHENVKEFAMTPEEKGKLERYRYNGFKDLQTAKVRDAGETRDYGLALSQGYKQGSKVTLNHGVNGKETTKLGGDEMKENNGWIACNLGSA | not soluble
